The test system of this data set is GFP-CBP fusion protein (green fluorescent protein with C-terminal thrombin-cleavable calmodulin binding peptide tag, expressed from GFP Clone No. 2995-87.6 in BL21(DE3) cells) [GFP: P42212].

For the substance thrombin, the “cleavage of the fusion protein by thrombin at 6 h” value is given as “Fifty percent cleavage was observed at 6 h” and the “cleavage of the fusion protein by thrombin at 24 h” value is reported as 95 percent cleavage was achieved at 24 h.

(Values after patent US20010016351.)
